# Laboratory results reported in patent US11819540B2, “Methods for treating and preventing neutrophil-derived net toxicity and thrombosis” (CHILDREN'S MEDICAL CENTER CORPORATION, priority 2011, dated 2023).
# “Also recorded” adds a separate entry of the source.
# B1: rhDNase-1: recombinant human DNase-1 (Dornase alpha, Pulmozyme, Genentech) (protein, UniProt P24855 23-282, looked up)
# Deoxyribonuclease-1: LKIAAFNIQTFGETKMSNATLVSYIVQILSRYDIALVQEVRDSHLTAVGKLLDNLNQDAPDTYHYVVSEPLGRNSYKERYLFVYRPDQVSAVDSYYYDDGCEPCGNDTFNREPAIVRFFSRFTEVREFAIVPLHAAPGDAVAEIDALYDVYLDVQEKWGLEDVMLMGDFNAGCSYVRPSQWSSIRLWTSPTFQWLIPDSADTTATPTHCAYDRIVVAGMLLRGAVVPDSALPFNFQAAYGLSDQLAQAISDHYPVEVMLK
# What was measured:
# Assay type in all cases: in vivo, mouse
# TRALI in BALB/c mice [1] = experiment: Two-event (LPS + anti-H-2Kd mAb) TRALI model; settings: i.v. administration
# [2] = test system: flow restriction-induced DVT in mice; experiment: IVC stenosis (flow restriction) model of deep vein thrombosis
# Source text: Mice were anesthetized by isoflurane-oxygen mixture and placed in a supine position. After laparotomy, intestines were exteriorized and warm sterile saline was applied during the whole procedure to prevent drying. After gentle separation from aorta, IVC was ligated over a 30 G needle by a 7.0 polypropylene suture immediately below the renal veins (towards the tail) and then the needle was removed. The needle was placed outside the vessel so that piercing or any other injury to the IVC wall was completely avoided. This procedure allows for standardized flow restriction without endothelial injury. All visible side branches (usually 1 or 2) were also ligated. After surgery, peritoneum and skin were closed by monofilament absorbable suture and 6.0 silk, respectively. Mice were euthanized after 6 h or 48 h and thrombi developed in the IVC below the suture (towards the tail) were taken for analysis.
# All mice were treated with DNaseI (Pulmozyme®) immediately after surgery and mice with 48 h IVC stenosis received 3 additional injections every 12 hours. The dose of every injection was 50 μg i.p. (50 μl of non-diluted Pulmozyme) and 10 μg i.v. (in 50 μl of sterile saline) in retro-orbital plexus. Control mice were injected with the same volume of DNase buffer (8.77 mg/ml sodium chloride and 0.15 mg/ml calcium chloride in sterile water for injections).
# Flow restriction model. The murine model of DVT was performed as described. […] A suture was placed on the IVC just below the renal veins over a spacer (diameter of 0.26 mm) and then the spacer was removed. […] All visible IVC side branches were also sutured. Thereafter, peritoneum and skin were closed, mice were sacrificed after 1-48 h and thrombi formed in the IVC were harvested. Sham-operated mice were opened and IVC sutured similarly to the experimental mice, but the suture was removed immediately after ligation.
# Histone infusion. A mixture of all histones isolated from calf thymus (Worthington, Lakewood, NJ, USA) was dissolved in sterile saline and infused intravenously in mice immediately before IVC stenosis application. The dose used (10 mg kg^−1) is known to produce a 25% decrease in platelet count 10 min after infusion. The infused solution of histone mix was essentially endotoxin-free (<0.025 EU mL^−1; measured using the endotoxin detection kit [Lonza, Walkersville, MD, USA] according to the manufacturer's instructions). Control mice received infusion of sterile saline. Mice were sacrificed 1 h after surgery and thrombus formation was examined.
# DNase 1 infusion. DNase 1 (PULMOZYME®, Genentech, San Francisco, CA, USA) was diluted in sterile saline and injected immediately after surgery (50 μg intraperitoneally and 10 μg intravenously). In experiments with 48 h IVC stenosis, injections were repeated three more times after every 12 h. Control mice were injected with the PULMOZYME™ vehicle buffer (8.77 mg mL^−1 sodium chloride and 0.15 mg mL^−1 calcium chloride) diluted in sterile saline.
# TRALI in BALB/c mice [3] = experiment: Two-event (LPS + anti-H-2Kd mAb) TRALI model
# Description: In order to determine the effect of anti-NET compounds as a treatment for TRALI, a mouse model of the 2-hit TRALI model was utilized. BALB/c male mice (8-10 week-old) were primed with an intraperitoneal injection of lipopolysaccharide (LPS) (0.1 or 0.5 mg/kg) 24 hours prior to challenge with anti-H2K^dmAb (clone 34-1-2s1, 1 mg/kg) or isotype control injected retro-orbitally. Before each injection mice were shortly anesthetized by inhalation of isoflurane. To measure the effect of DNaseI treatment on mice experiencing TRALI, mice received intranasal DNaseI (50 μg/mouse, 1 μg/ul) or 50 μl of the buffer-vehicle 10 minutes prior to the antibody injection.
# The model was adapted from Looney et al. (2009).^20 Male BALB/c mice (8-10 week old) were primed with an i.p. injection of LPS (0.1 or 0.5 mg/kg, as indicated in the text) 24 hours prior to challenge with anti-H-2K^d mAb (clone 34-1-2s, 1 mg/kg) or isotype control injected retro-orbitally. In experiments involving DNase 1 treatment, mice that were injected with both LPS and the anti-H-2K^d mAb received i.n. DNase 1 (PULMOZYME®, Genentech, 50 μg/mouse, 1 μg/ul) 10 minutes before or 90 minutes after antibody injection. Control TRALI mice were injected with 50 μl of the DNase 1 vehicle-buffer in DNase 1 experiments. Blood collection, lung harvesting and arterial oxygen saturation measurements were all performed 2 hours after antibody injection. No event of TRALI-related death was recorded under these conditions in any of the treated mice.
# Rectal temperatures were measured as an indicator of shock-like condition 2 hours post anti-H-2K^d infusion using a rectal temperature probe (MOUSEOX PLUS® system, STARR Life Sciences) connected to a POWERLAB™ data acquisition system (ADInstruments, USA).
# Mouse peripheral blood counts were measured from EDTA (ethylenediaminetetraacetic acid)-anti-coagulated blood with a HEMAVET™ 950 veterinary hematology analyzer (Drew Scientific). This blood counter uses two different currents to analyze the cells. A low voltage current determines the volume and the number of cells (Coulter Impedance principle) and a high voltage current that passes through the cells generates information on their internal structure such as nucleus, fluid, granules and vacuoles.
# Mice were sacrificed and intubated with a 24-gauge cannula after their tracheas were surgically isolated. The lungs were flushed three times with 0.8 ml of sterile PBS. BAL fluids were centrifuged for 5 minutes at 800 g. Protein concentration was quantified in the supernatant using the bicinchoninic acid method.
# Blood arterial oxygen saturation was recorded 2 hours after anti-H-2K^d antibody injection, using a small rodent oxymeter sensor (MOUSE^OX™, STARR Life Sciences) mounted on the collar of each tested mouse. The 2 hour endpoint was used as per the model published by Looney and colleagues in 2009.^20-22
# Mouse lungs were fixed by intratracheal infusion of 1.5% formaldehyde/1.5% glutaraldehyde in sodium cacodylate buffer (pH 7.35), excised and bathed in the same solution for 2 hours at 4° C. The fixed lungs were sliced into 0.5 mm sections; the sections were washed extensively in distilled water, frozen on a liquid-helium cooled copper block, freeze-dried at −80° C., and coated with 2 nm of platinum at a 45° angle with rotation and 10 nm of carbon without rotation. Tissue was removed from the metal casting using bleach (Austin's A-1-5.25% sodium hypochlorite), washed and picked up on formvar-coated 200 mesh copper grids. Grids were photographed in a JEOL-1200 EX electron microscope at 100 kV.
# [4] = 6 h and 48 h IVC stenosis, vs vehicle
# [5] = intranasal DNaseI 50 μg/mouse 10 min prior to antibody
molecule,measurement,setting,value
B1,TRALI outcome,TRALI in BALB/c mice [1],did not improve TRALI outcome
same,protection from DVT (thrombus incidence),[2]; 6 h and 48 h IVC stenosis,protected mice from flow restriction-induced DVT
same,thrombus length,[2]; [4],significantly reduced
same,thrombus weight,[2]; [4],significantly reduced
same,protection from DVT (thrombus incidence),"[2]; 6 h and 48 h IVC stenosis, listed as DNaseI",greatly reduces the incidence of thrombosis
same,mice that developed a thrombus,"[2]; 48 h IVC stenosis, 50 μg i.p. and 10 μg i.v. every 12 h, 2 of 12, vehicle 5 of 8",17%
same,rectal temperature (shock-like condition),"TRALI in BALB/c mice [3]; 2 hours after mAb infusion, DNase 1 as prophylaxis or treatment",normal
same,arterial oxygen saturation (mean and minimum),TRALI in BALB/c mice [3]; DNase 1 i.n. 90 minutes after onset of TRALI (Post),improves arterial oxygen saturation; also recorded: succeeded in correcting the defect in blood oxygenation
same,arterial oxygen saturation (mean and minimum),TRALI in BALB/c mice [3]; DNase 1 i.n. pretreatment 10 min before antibody (Pre),succeeded in correcting the defect in blood oxygenation; also recorded: more stable arterial blood oxygen saturation and improved transient hypoxia
same,down spikes in blood arterial oxygen saturation (transient hypoxia),TRALI in BALB/c mice [3]; DNase 1 i.n. pretreatment vs vehicle buffer,significantly attenuated
same,TRALI outcome,"TRALI in BALB/c mice [3]; inhalation, before or after TRALI onset",had a positive effect
same,"fibrous material (NETs) in alveoli, electron microscopy",TRALI in BALB/c mice [3]; intranasal DNase 1 50 μg/mouse 10 min prior to antibody injection,absent; also recorded: prevents their alveolar accumulation; also recorded: no fibrous material could be detected
same,TRALI-induced decrease of platelet counts,TRALI in BALB/c mice [3]; [5],diminished
same,TRALI-induced increase of BAL protein levels,TRALI in BALB/c mice [3]; [5],diminished
